Laboratory results reported in the supplement of paper PMC7125110.
± gives the standard error. Fewer inactive variants are shown than the library holds.

B1: glmS ribozyme (parent)
chain: AUAAAAGCGCCAGAACUACAGAAAUGUAGUUGACGAGGAGGAGGUUUAUCGAAUUUUCGGCGGAUGCCUCCAAA

Variants of: B1
Assay: self-cleavage kobs at 2500 uM GlcN6P; higher = faster cleavage; RNA array
Settings: with glucosamine-6-phosphate
Summary of the method: (§1)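 Ribozyme variants carrying barcodes were transcribed in situ on sequenced MiSeq chips by E. coli RNA polymerase and tracked at 37 °C with a hybridised Cy3 probe. They were exposed to 40 μM to 10 mM glucosamine-6-phosphate in HEPES/KCl/Mg(OAc)2 buffer. kobs came from exponential decay fits of normalised per-tile medians, and kcat and KM from weighted Michaelis–Menten fits.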

Variant	self-cleavage kobs at 2500 uM GlcN6P [s⁻¹]
C8A A36G A53G	< 1e-05
C8A G32U A48C	< 1e-05
C8G G35U A39C	< 1e-05
C8G C10U G37U A42C U54G A64G C70G	< 1e-05
A12U A14U G29C U49A	< 1e-05
A15G U31G U47G	0.000803 ± 0.00015
A15C U31G G59C	< 1e-05
C8G G35A U65C	< 1e-05
G13U U57G U65C	< 1e-05
C11G G43U C58A	< 1e-05
A14G G32U U55G	0.000962 ± 0.00018
A6U G29U A36G G44A U55C	< 1e-05
A14G G51C A64U C67G C71U	< 1e-05
A15G A33C U45A	0.000135 ± 4.1e-05
A6G G43U G44A A48U G63A	< 1e-05
C8A A53C U55C G60U C68G	< 1e-05
C8G A33G A52G A53G C68A U69G	0.000457 ± 0.00011
C11U C19A	0.000235 ± 0.0001
C11A G37C G38U	< 1e-05
A6C G13U A33U A52C G63C	< 1e-05
C10G C34G A48C	< 1e-05
G13U U31G G41U G43U	< 1e-05
C16A G29C U45C	0.000155 ± 3.5e-05

Variant	self-cleavage kobs at 2500 uM GlcN6P [s⁻¹]
C16A A33C C71A	< 1e-05
A14C U45A U57A	3.29e-05 ± 1.2e-05
A6U A52G C67G	0.000425 ± 0.00018
A6G G7C A36U A39U	< 1e-05
G9A A14G A15U U55A	7.2e-05 ± 1.6e-05
G13C U47A U69G	0.000497 ± 0.00015
A6C U31C G41C A42G U45G G59C G66U	< 1e-05
G13A G29U G60U G66A	< 1e-05
C10A G41C C50G A53C	< 1e-05
A15C G32U C34U	< 1e-05
G13C U30C G35C G40U U47C C50A	< 1e-05
C10A A15C U46A C61U U65C	< 1e-05
A14G G44C	0.000239 ± 4.2e-05
A15G G32A C68U	0.000247 ± 8.7e-05
A15C U55A G60C	< 1e-05
A14G G37U G44U	< 1e-05
A14C C34G A39C	< 1e-05
A12G U56G C70G	0.000113 ± 3e-05
G9A A42U	< 1e-05
C11U U49A A52G	< 1e-05
G7C A12U A39G A53U	< 1e-05
C10A G37A A53C	< 1e-05
G7A A12G G35A	< 1e-05

Variant	self-cleavage kobs at 2500 uM GlcN6P [s⁻¹]
A14G U31G G43C	< 1e-05
A15U C16U C58G C70U	7.87e-05 ± 2.1e-05
A12C U49G G62U	< 1e-05
G13A U65G	8.18e-05 ± 2e-05
C8G A15U U55C	< 1e-05
A14U U30G G41U	0.000233 ± 7.4e-05
C8A A48C U49A	< 1e-05
C8G A15U U47G	< 1e-05
C10A A48C A64U	< 1e-05
A12G A14U G66A	6.8e-05 ± 1.9e-05
C11A U54A U56A G59U	0.00154 ± 0.00068
C10U U47G A52U U69A	7.36e-05 ± 3.5e-05
G9A C11G A33U G35A C58A C70G	< 1e-05
C11A C16A A42C	< 1e-05
G9A C50G U55A C67G	4.95e-05 ± 1.9e-05
G7C C10U G13C G66U	< 1e-05
C11G U49C C70U	< 1e-05
G9U G38C G40U G43C	< 1e-05
A6C G29A G37U	< 1e-05
G7U A64G G66A	< 1e-05
G9A A33U A39C A42U U46G U55A G60U A64U	< 1e-05
G9C A12G C58G	< 1e-05
C11G A15U A42U U46C	< 1e-05

Variant	self-cleavage kobs at 2500 uM GlcN6P [s⁻¹]
A14C A15C G38U	< 1e-05
A15U U56C U57G G63A C70G	0.000104 ± 4.9e-05
A15G G32C C68G	< 1e-05
G7A G9A G38A U65G	< 1e-05
A12C A14U A53C	8.51e-05 ± 4e-05
A12U C34U C71U	< 1e-05
C11A A14C C70U	7.46e-05 ± 2.7e-05
C8U G51U U57C	< 1e-05
C16A A53U U55A	0.000149 ± 3.9e-05
C11U G32C C50G C61G	0.000267 ± 7.4e-05
A12U G32A G35U U49A C61G U65C G66A	< 1e-05
G7A U31C A39G A52U	< 1e-05
A12G G13U G60U	< 1e-05
A15U A64G C71G	5.53e-05 ± 1.5e-05
C16A U31C G43A U47G A53G C68U	8.35e-05 ± 2.9e-05
A14G C16G A64G U69G	5.19e-05 ± 2.3e-05
G7U U49A U65G	< 1e-05
G9A A33C A39C U57A	< 1e-05
G7C U30G G37A	< 1e-05
A15C A39U U49A C50U A52G A53C	< 1e-05
G63A G66U C67U	< 1e-05
A6U C10G A39U C71U	< 1e-05
C11U G44C A52U G60C	< 1e-05

Variant	self-cleavage kobs at 2500 uM GlcN6P [s⁻¹]
G7A U31C G35C A42C U46G U54G	< 1e-05
A6G U30C G44U A52C G63U	< 1e-05
G13A A36U G40A	< 1e-05
A14U G32U G40U	3.98e-05 ± 1.3e-05
A12U G13C U56G C67U	< 1e-05
G13U G40A A42C U65G	< 1e-05
A14G A42C U49C	< 1e-05
G9U G41C G59A C71U	< 1e-05
A14U A52C A53G U55C U57G	< 1e-05
C11A G43U U54G	< 1e-05
C11U A12G A15U	0.000175 ± 4.8e-05
C11G U30C G40C	< 1e-05
G7U G38U G66U	< 1e-05
C10G C11A A33C A36U A52U A53C U56A G62U	< 1e-05
G7A A48G C70U	< 1e-05
G7A G38U G41U	< 1e-05
A6U G35C U56A G60U A64G	< 1e-05
C10G G40A G60U	< 1e-05
C8A A15C G32A	< 1e-05
A15U U55G C58U C70G	6.29e-05 ± 2.7e-05
A12U A36C G59U U65A	< 1e-05
A12C A15U G41A A53C C58U U65A	< 1e-05
A6G C10U U31A G60U C67U	< 1e-05

Variant	self-cleavage kobs at 2500 uM GlcN6P [s⁻¹]
C8U G38A C70A	< 1e-05
G7U U54C C61A	< 1e-05
C8G A64G U69A C71U	< 1e-05
A12U G44C A53G U56A	7.9e-05 ± 2.1e-05
C11U U46G A52U G66A	< 1e-05
A6U A33U C68G	< 1e-05
G7U U47G A52U	< 1e-05
A15C G43A G44U G59U	< 1e-05
G9C A15C A33C U46A U65G	< 1e-05
G13U G40A A53G	0.000153 ± 3.6e-05
A12C A15G G43C	< 1e-05
G13C G29C G38U C67G	0.000596 ± 0.0002
G7A A12C A15U G41U	< 1e-05
C10G A36C G60C C70U	< 1e-05
G60U C71A	< 1e-05
C11U G29A G38U U47C	< 1e-05
A15C U30A U31C C71G	0.000148 ± 5.9e-05
C8G G40U G41C	< 1e-05
C10A G51U C67G	0.000109 ± 5.4e-05
C11U A15C G63U U65A C67A	< 1e-05
C8G G37A A39U	< 1e-05
A15G A33U G40U G41A	< 1e-05
A12G A42C G59U G63U	< 1e-05

Variant	self-cleavage kobs at 2500 uM GlcN6P [s⁻¹]
C10U A12U A42G	0.000153 ± 5.7e-05
G9C A39C C67A	< 1e-05
G9A G44U G60A	< 1e-05
G7U U45A C58A	< 1e-05
A12U G35U A53U C61G U65C	< 1e-05
A12G A33G G44C	< 1e-05
U54A C61G C71G	0.000139 ± 4.6e-05
C8U A36U C50U	< 1e-05
A6U A36U G37C A48U	< 1e-05
A14G A33U G60U	< 1e-05
C10A C16G C50A C58G C61U	6.15e-05 ± 1.9e-05
G13C G35C G44U U56A C61U	< 1e-05
C8A G59A C70U	< 1e-05
G7U C10G G43U	< 1e-05
C11U U54C C67A	0.00025 ± 8e-05
G9U C10U C67U	< 1e-05
A12G A42U U69A	0.000849 ± 0.00021
G7C C11G A12U	< 1e-05

Variants of: B1
Assay: self-cleavage kobs at 10000 uM GlcN6P; higher = faster cleavage; RNA array
Settings: with glucosamine-6-phosphate
Summary of the method: as §1

Variant	self-cleavage kobs at 10000 uM GlcN6P [s⁻¹]
G13U U57G U65C	< 1e-05
A6C U31C G41C A42G U45G G59C G66U	< 1e-05
A14G G44C	0.000423 ± 7.7e-05
A12G U56G C70G	7.52e-05 ± 2e-05
G7A G9A G38A U65G	< 1e-05
A12G G13U G60U	< 1e-05
G9U G41C G59A C71U	< 1e-05
C11U A12G A15U	0.000193 ± 4.2e-05
A12C A15G G43C	< 1e-05
G60U C71A	< 1e-05
A15G A33U G40U G41A	< 1e-05
A14G A33U G60U	< 1e-05
A12G A42U U69A	0.00112 ± 0.00029

Variants of: B1
Assay: self-cleavage kobs at 640 uM GlcN6P; higher = faster cleavage; RNA array
Settings: with glucosamine-6-phosphate
Summary of the method: as §1

Variant	self-cleavage kobs at 640 uM GlcN6P [s⁻¹]
C58U C67U C68U C71U	0.000646 ± 0.00029
C58G A64C C67U	7.21e-05 ± 2e-05
G63A G66U C67U	< 1e-05
U55G U56A C71G	8.05e-05 ± 1.8e-05
U54A G62A G66C	< 1e-05
G60U C71A	< 1e-05
U54A C61G C71G	7.31e-05 ± 1.7e-05
